Assay results taken from ChEMBL document CHEMBL3352481, “Synthesis of {[5-(adenin-9-yl)-2-furyl]methoxy}methyl phosphonic acid and evaluations against human adenylate kinases” (Bioorg Med Chem Lett, 2014).

How the values were obtained:
Settings in all cases: Homo sapiens; call rule not given here
[1] = substrate: Nc1ncnc2c1ncn2-c1ccc(COCP(=O)(O)O)o1; assay: (§1) Ratio of Kcat to Km for recombinant AK1 (unknown origin)
[2] = substrate: Nc1ncnc2c1ncn2[C@@H]1O[C@H](COP(=O)(O)O)[C@@H](O)[C@H]1O; assay: as §1
[3] = substrate: Nc1ncnc2c1ncn2-c1ccc(CO)o1; assay: as §1
[4] = substrate: C[C@H](Cn1cnc2c(N)ncnc21)OCP(=O)(O)O; assay: as §1
[5] = substrate: Nc1ncnc2c1ncn2[C@H]1C[C@H](O)[C@@H](COP(=O)(O)O)O1; assay: as §1
[6] = substrate: Nc1ncnc2c1ncn2CCOCP(=O)(O)O; assay: as §1
[7] = substrate: Nc1ncnc2c1ncn2-c1ccc(COCP(=O)(O)O)o1; assay: (§2) Activity of recombinant AK1 (unknown origin) assessed as ADP formation by spectroscopic pyruvate kinase/lactate dehydrogenase coupled assay
[8] = substrate: Nc1ncnc2c1ncn2[C@@H]1O[C@H](COP(=O)(O)O)[C@@H](O)[C@H]1O; assay: as §2
[9] = substrate: Nc1ncnc2c1ncn2-c1ccc(CO)o1; assay: as §2
[10] = substrate: C[C@H](Cn1cnc2c(N)ncnc21)OCP(=O)(O)O; assay: as §2
[11] = substrate: Nc1ncnc2c1ncn2[C@H]1C[C@H](O)[C@@H](COP(=O)(O)O)O1; assay: as §2
[12] = substrate: Nc1ncnc2c1ncn2CCOCP(=O)(O)O; assay: as §2

B1: Adenylate kinase isoenzyme 1 (Homo sapiens), P00568 (protein)
chain: MEEKLKKTKIIFVVGGPGSGKGTQCEKIVQKYGYTHLSTGDLLRSEVSSGSARGKKLSEIMEKGQLVPLETVLDMLRDAMVAKVNTSKGFLIDGYPREVQQGEEFERRIGQPTLLLYVDAGPETMTQRLLKRGETSGRVDDNEETIKKRLETYYKATEPVIAFYEKRGIVRKVNAEGSVDSVFSQVCTHLDALK
kcat/Km [1]: Not Active | kcat/Km [2]: 2.85 ×10⁶ /M/s | kcat/Km [3]: Not Active | kcat/Km [4]: 75 M⁻¹ s⁻¹ | kcat/Km [5]: 0.16 ×10⁶ /M/s | kcat/Km [6]: 14 ×10⁶ /M/s | Km [7]: Not Active | kcat [7]: Not Active | Km [8]: 175 µM | kcat [8]: 500 s⁻¹ | Km [9]: Not Active | kcat [9]: Not Active | Km [10]: 3000 µM | kcat [10]: 0.22 s⁻¹ | Km [11]: 1500 µM | kcat [11]: 240 s⁻¹ | Km [12]: 6000 µM | kcat [12]: 0.08 s⁻¹
